PMC5159498, “IQGAP1 Interaction with RHO Family Proteins Revisited” (The Journal of Biological Chemistry, 2016)

Columns and labels:
[1] = target: the molecule itself; test: SEC; analytical SEC, Superdex 200 10/30, calibrated with standard proteins; 100 μM protein in 200 μl; 30 mM Tris/HCl pH 7.5, 150 mM NaCl, 5 mM MgCl2, 3 mM DTT; 0.5 ml/min
RAC1 (aa 1-179) [2] = target: T1, RAC1 (aa 1-179) (human, UniProt P63000 1-179); test: stopped-flow fluorometry; mGppNHp-bound RHO protein (0.2 μM) rapidly mixed with IQGAP1 variant (2 μM, or 2-12 μM for kon); koff by displacement with 10 μM non-fluorescent GppNHp-bound GTPase; Kd = koff/kon; 30 mM Tris-HCl pH 7.5, 10 mM KH2PO4/K2HPO4, 5 mM MgCl2, 3 mM DTT; conditions: both partners purified
RAC1 (aa 1-179) [3] = target: T1, RAC1 (aa 1-179); test: fluorescence polarisation; IQGAP1 variant titrated to mGppNHp-bound RHO protein (1 μM); equilibrium Kd (eKd), quadratic fit; 30 mM Tris/HCl pH 7.5, 150 mM NaCl, 5 mM MgCl2, 3 mM DTT, 25 °C; conditions: both partners purified

Row | Binder | stoichiometry N [1] | binding result [1] | Kd (RAC1 (aa 1-179) [2]) [µM] | Kd (RAC1 (aa 1-179) [3]) [µM]
1 | IQGAP1 GRD2 (aa 962-1345) (domain or fragment, human, UniProt P46940 962-1345, looked up, human IQGAP1, GAP-related domain fragment GRD2, aa 962-1345, from the vector pMCSG7; source: E. coli (pLysS BL21(DE3), CodonPlusRIL or BL21(Rosetta)), purified (Ni-NTA, gel filtration)) SKEKREKLEAYQHLFYLLQTNPTYLAKLIFQMPQNKSTKFMDSVIFTLYNYASNQREEYLLLRLFKTALQEEIKSKVDQIQEIVTGNPTVIKMVVSFNRGARGQNALRQILAPVVKEIMDDKSLNIKTDPVDIYKSWVNQMESQTGEASKLPYDVTPEQALAHEEVKTRLDSSIRNMRAVTDKFLSAIVSSVDKIPYGMRFIAKVLKDSLHEKFPDAGEDELLKIIGNLLYYRYMNPAIVAPDAFDIIDLSAGGQLTTDQRRNLGSIAKMLQHAASNKMFLGDNAHLSIINEYLSQSYQKFRRFFQTACDVPELQDKFNVDEYSDLVTLTKPVIYISIGEIINTHTLLLDHQDAIAPEHNDPIHELLDDLGEVPTIESLIGESS | 2 |  |  | 
2 | GST-fused IQGAP1 RGCT-CT (aa 1276-1657) (domain or fragment, human, UniProt P46940 1276-1657, looked up, human IQGAP1, RGCT and CT domains, aa 1276-1657; source: E. coli (pLysS BL21(DE3), CodonPlusRIL or BL21(Rosetta)), purified; not shown: GST, N-terminal, kept) QDKFNVDEYSDLVTLTKPVIYISIGEIINTHTLLLDHQDAIAPEHNDPIHELLDDLGEVPTIESLIGESSGNLNDPNKEALAKTEVSLTLTNKFDVPGDENAEMDARTILLNTKRLIVDVIRFQPGETLTEILETPATSEQEAEHQRAMQRRAIRDAKTPDKMKKSKSVKEDSNLTLQEKKEKIQTGLKKLTELGTVDPKNKYQELINDIARDIRNQRRYRQRRKAELVKLQQTYAALNSKATFYGEQVDYYKSYIKTCLDNLASKGKVSKKPREMKGKKSKKISLKYTAARLHEKGVLLEIEDLQVNQFKNVIFEISPTEEVGDFEVKAKFMGVQMETFMLHYQDLLQLQYEGVAVMKLFDRAKVNVNLLIFLLNKKFYGK |  | binds |  | 
3 | IQGAP1 GRD1-CT (aa 863-1657) (domain or fragment, human IQGAP1, GRD, RGCT and CT domains, aa 863-1657; The GST tag was cleaved 'if needed'; also called C-terminal half of IQGAP1; C-terminal 795 amino acids of IQGAP1) DPPMVVVRKFVHLLDQSDQDFQEELDLMKMREEVITLIRSNQQLENDLNLMDIKIGLLVKNKITLQDVVSHSKKLTKKNKEQLSDMMMINKQKGGLKALSKEKREKLEAYQHLFYLLQTNPTYLAKLIFQMPQNKSTKFMDSVIFTLYNYASNQREEYLLLRLFKTALQEEIKSKVDQIQEIVTGNPTVIKMVVSFNRGARGQNALRQILAPVVKEIMDDKSLNIKTDPVDIYKSWVNQMESQTGEASKLPYDVTPEQALAHEEVKTRLDSSIRNMRAVTDKFLSAIVSSVDKIPYGMRFIAKVLKDSLHEKFPDAGEDELLKIIGNLLYYRYMNPAIVAPDAFDIIDLSAGGQLTTDQRRNLGSIAKMLQHAASNKMFLGDNAHLSIINEYLSQSYQKFRRFFQTACDVPELQDKFNVDEYSDLVTLTKPVIYISIGEIINTHTLLLDHQDAIAPEHNDPIHELLDDLGEVPTIESLIGESSGNLNDPNKEALAKTEVSLTLTNKFDVPGDENAEMDARTILLNTKRLIVDVIRFQPGETLTEILETPATSEQEAEHQRAMQRRAIRDAKTPDKMKKSKSVKEDSNLTLQEKKEKIQTGLKKLTELGTVDPKNKYQELINDIARDIRNQRRYRQRRKAELVKLQQTYAALNSKATFYGEQVDYYKSYIKTCLDNLASKGKVSKKPREMKGKKSKKISLKYTAARLHEKGVLLEIEDLQVNQFKNVIFEISPTEEVGDFEVKAKFMGVQMETFMLHYQDLLQLQYEGVAVMKLFDRAKVNVNLLIFLLNKKFYGK |  |  | 0.94 | 5.53
4 | IQGAP1 GRD1-RGCT wild type (aa 877-1558) (domain or fragment, human, UniProt P46940 877-1558, looked up, human IQGAP1, GRD and RGCT domains, lacks the last 99 amino acids, aa 877-1558; also called GRD1-RGCT^WT; IQGAP1^877-1558) DQSDQDFQEELDLMKMREEVITLIRSNQQLENDLNLMDIKIGLLVKNKITLQDVVSHSKKLTKKNKEQLSDMMMINKQKGGLKALSKEKREKLEAYQHLFYLLQTNPTYLAKLIFQMPQNKSTKFMDSVIFTLYNYASNQREEYLLLRLFKTALQEEIKSKVDQIQEIVTGNPTVIKMVVSFNRGARGQNALRQILAPVVKEIMDDKSLNIKTDPVDIYKSWVNQMESQTGEASKLPYDVTPEQALAHEEVKTRLDSSIRNMRAVTDKFLSAIVSSVDKIPYGMRFIAKVLKDSLHEKFPDAGEDELLKIIGNLLYYRYMNPAIVAPDAFDIIDLSAGGQLTTDQRRNLGSIAKMLQHAASNKMFLGDNAHLSIINEYLSQSYQKFRRFFQTACDVPELQDKFNVDEYSDLVTLTKPVIYISIGEIINTHTLLLDHQDAIAPEHNDPIHELLDDLGEVPTIESLIGESSGNLNDPNKEALAKTEVSLTLTNKFDVPGDENAEMDARTILLNTKRLIVDVIRFQPGETLTEILETPATSEQEAEHQRAMQRRAIRDAKTPDKMKKSKSVKEDSNLTLQEKKEKIQTGLKKLTELGTVDPKNKYQELINDIARDIRNQRRYRQRRKAELVKLQQTYAALNSKATFYGEQVDYYKSYIKTCLDNLASKGKVSKKPREMKGKKSKK | 2 |  | 2.81 | 4.6
5 | IQGAP1 GRD1-RGCT S1443E (aa 877-1558) (domain or fragment, human IQGAP1 aa 877-1558 with the phosphomimetic mutation S1443E (printed as S1143E in the methods, S1443E everywhere else), from the vector pET46 EkLIC; source: E. coli (pLysS BL21(DE3), CodonPlusRIL or BL21(Rosetta)), purified (Ni-NTA, gel filtration)) DQSDQDFQEELDLMKMREEVITLIRSNQQLENDLNLMDIKIGLLVKNKITLQDVVSHSKKLTKKNKEQLSDMMMINKQKGGLKALSKEKREKLEAYQHLFYLLQTNPTYLAKLIFQMPQNKSTKFMDSVIFTLYNYASNQREEYLLLRLFKTALQEEIKSKVDQIQEIVTGNPTVIKMVVSFNRGARGQNALRQILAPVVKEIMDDKSLNIKTDPVDIYKSWVNQMESQTGEASKLPYDVTPEQALAHEEVKTRLDSSIRNMRAVTDKFLSAIVSSVDKIPYGMRFIAKVLKDSLHEKFPDAGEDELLKIIGNLLYYRYMNPAIVAPDAFDIIDLSAGGQLTTDQRRNLGSIAKMLQHAASNKMFLGDNAHLSIINEYLSQSYQKFRRFFQTACDVPELQDKFNVDEYSDLVTLTKPVIYISIGEIINTHTLLLDHQDAIAPEHNDPIHELLDDLGEVPTIESLIGESSGNLNDPNKEALAKTEVSLTLTNKFDVPGDENAEMDARTILLNTKRLIVDVIRFQPGETLTEILETPATSEQEAEHQRAMQRRAIRDAKTPDKMKKSKEVKEDSNLTLQEKKEKIQTGLKKLTELGTVDPKNKYQELINDIARDIRNQRRYRQRRKAELVKLQQTYAALNSKATFYGEQVDYYKSYIKTCLDNLASKGKVSKKPREMKGKKSKK |  |  | 6.26 | 26.7
6 | IQGAP1 GRD1-RGCT S1441E (aa 877-1558) (domain or fragment, human IQGAP1 aa 877-1558 with the phosphomimetic mutation S1441E, from the vector pET46 EkLIC; source: E. coli (pLysS BL21(DE3), CodonPlusRIL or BL21(Rosetta)), purified (Ni-NTA, gel filtration)) DQSDQDFQEELDLMKMREEVITLIRSNQQLENDLNLMDIKIGLLVKNKITLQDVVSHSKKLTKKNKEQLSDMMMINKQKGGLKALSKEKREKLEAYQHLFYLLQTNPTYLAKLIFQMPQNKSTKFMDSVIFTLYNYASNQREEYLLLRLFKTALQEEIKSKVDQIQEIVTGNPTVIKMVVSFNRGARGQNALRQILAPVVKEIMDDKSLNIKTDPVDIYKSWVNQMESQTGEASKLPYDVTPEQALAHEEVKTRLDSSIRNMRAVTDKFLSAIVSSVDKIPYGMRFIAKVLKDSLHEKFPDAGEDELLKIIGNLLYYRYMNPAIVAPDAFDIIDLSAGGQLTTDQRRNLGSIAKMLQHAASNKMFLGDNAHLSIINEYLSQSYQKFRRFFQTACDVPELQDKFNVDEYSDLVTLTKPVIYISIGEIINTHTLLLDHQDAIAPEHNDPIHELLDDLGEVPTIESLIGESSGNLNDPNKEALAKTEVSLTLTNKFDVPGDENAEMDARTILLNTKRLIVDVIRFQPGETLTEILETPATSEQEAEHQRAMQRRAIRDAKTPDKMKKEKSVKEDSNLTLQEKKEKIQTGLKKLTELGTVDPKNKYQELINDIARDIRNQRRYRQRRKAELVKLQQTYAALNSKATFYGEQVDYYKSYIKTCLDNLASKGKVSKKPREMKGKKSKK |  |  | 3.21 | 6.7
7 | IQGAP1 RGCT (aa 1276-1575) (domain or fragment, human, UniProt P46940 1276-1575, looked up, human IQGAP1, RASGAP C-terminal domain, aa 1276-1575; source: E. coli (pLysS BL21(DE3), CodonPlusRIL or BL21(Rosetta)), purified) QDKFNVDEYSDLVTLTKPVIYISIGEIINTHTLLLDHQDAIAPEHNDPIHELLDDLGEVPTIESLIGESSGNLNDPNKEALAKTEVSLTLTNKFDVPGDENAEMDARTILLNTKRLIVDVIRFQPGETLTEILETPATSEQEAEHQRAMQRRAIRDAKTPDKMKKSKSVKEDSNLTLQEKKEKIQTGLKKLTELGTVDPKNKYQELINDIARDIRNQRRYRQRRKAELVKLQQTYAALNSKATFYGEQVDYYKSYIKTCLDNLASKGKVSKKPREMKGKKSKKISLKYTAARLHEKGVLL |  | binds |  | 
